Measured values reported in the nanobody polyreactivity screen of Harvey et al. (2022).

Experiment: yeast display, Sf9 membrane polyspecificity reagent, FACS + sequencing; frameworks hold sequencing errors
Outline: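 Genes from sorted yeast were amplified by colony PCR, read by MiSeq 2 × 250 sequencing and filtered on CDR length. These cells carried a synthetic nanobody library in Saccharomyces cerevisiae BJ5465 and were sorted by FACS into low and high (top ~1%) gates on anti-HA and streptavidin fluorescence. Polyreactivity is labelled according to the gate of origin.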

| Sequence | polyreactivity (PSR sort gate) |
| --- | --- |
| QVQLVESGGGLVQAGGSLRLSCAASGRIFRSYAMGWYRQAPGKERELVAAITSGGSTNYADSVKGRFTISRDNAKNTVYLQMNSLKPEDTAVYYCNADRWKSGYWRYDYWGQGTQVTVSS | low polyreactivity |
| QVQLVESGGGLVQAGGSLRLSCAASGRIFRTNAMGWYRQAPGKERELVAAITFSGGGTYYADSVKGRFTISRDNAKNTVYLQMNSLKPEDTAVYYCATDWYYEYYYWGQGTQVTVSS | low polyreactivity |
| QVQLVESGGGLVQAGGSLRLSCAASGRIFRTNAMGWYRQAPGKERELVASINSDGSTNYADSVKGRFTISRDNAKNTVYLQMNSLKPDDTAVYYCAAGYFWGRIKYYYWGQCTQVTVSS | high polyreactivity |
| QVQLVESGGGLVQAGGSLRLSCAASGRIFRTYAMGWYRQAPGKERELVASISWGGGSRTYADSVKGRFTISRDNAKNTVYLQMNSLKPEDTGVYYCAADVHYTFGMDYWGQGTQVTVSS | high polyreactivity |
| QVQLVESGGGLVQAGGSLRLSCAASGRIFRVNTMGWYRQAPGKERELVAAISTSGGTTYYADSVKGRFTISRDNAKNTVYIQLNSLKPEDTAVYYCNASYLTRRDGYIEDAIYDYWGQGTQVTVSS | low polyreactivity |
| QVQLVESGGGLVQAGGSLRLSCAASGRIFRVNTMGWYRQSPGKERELVAAIRSSGTRTYYADSVKGRFTISRDNAKNTVYLQMNSLKPEDTAVYYCAATGRRGSGYYYWGQGTQVTVSS | high polyreactivity |
| QVQLVESGGGLVQAGGSLRLSCAASGRIFRVYAMGWYRQAPGKERELVAAINRSGGTTYYADSVKGRFTISRDNAKHTVYLQMNSLKPEDTAVYYCNAPVRRDVAYGYWGQGTQVTVSS | high polyreactivity |
| QVQLVESGGGLVQAGGSLRLSCAASGRIFRVYAMGWYRQAPGKERELVAAISWSGGRTYYADSVKGRFTISRDNAKNTVYLQMNSLKPEDTAVYYCAAVSCYALGFDYWGQGTQVTVSS | high polyreactivity |
| QVQLVESGGGLVQAGGSLRLSCAASGRIFRVYAMGWYRQAPGKERELVASISSGGSTNYADSVKGRFTISRENAKNTVYLQMNSLKPEDTAVYYCAADYWYRLFWYYGAPLDYWGQGTQVTVSS | low polyreactivity |
| QVQLVESGGGLVQAGGSLRLSCAASGRIFRWNAMGWYRQAPGKERELVAAISSSGGRTYYADSVKGRFTISRDTAKNTVYLQMNSLKPEDTAVYYCAAYPFSDEYDYWGQGTQVTVSS | high polyreactivity |
| QVQLVESGGGLVQAGGSLRLSCAASGRIFRWNAMGWYRQAPGKERELVAAISWNGGRTYYADSVKGRFTISRDNAKNTVYLQMNSLKPEDTAVYYCAAPHSVPDLHSGDYWGQGSQVTVSS | low polyreactivity |
| QVQLVESGGGLVQAGGSLRLSCAASGRIFRWNAMGWYRQAPGKERELVAVISSGGSTNYADSVKGRFTISRDNAKNTVYLQMNSLKPEDTAVYYCAADEGYVWPYYGWGFGKYDYWGQGTQVTVSS | low polyreactivity |
| QVQLVESGGGLVQAGGSLRLSCAASGRIFRWYAMGWYRQAPGKERELVAAISWSGGRTYYADSVKGRFTISRDNAKNTVYFQMNSLKPEDTAVYYCAAEGAIPRYYIGGVDYWGQGTQVTVSS | high polyreactivity |
| QVQLVESGGGLVQAGGSLRLSCAASGRIFRWYAMGWYRQAPGKERELVAAISYSGGSTYYADSVKGRFTISRDNAKNTVYLQMNSLKPEDTAVYYCAAATYYKFDYWGQGTQVTVSS | high polyreactivity |
| QVQLVESGGGLVQAGGSLRLSCAASGRIFRWYAMGWYRQAPGKERELVATISSTGGSTYYADSVKGRFTLSRDNAKNTVYLQMNSLKPEDTAVYYCNAVVYGIFLYAWYDYWGQGTQVTVSS | low polyreactivity |
| QVQLVESGGGLVQAGGSLRLSCAASGRIFRYNAMGWSRQAPGKERELVAAISRRGGTTYYADSVKGRFTISRDNAKNTVYLQMNSLKPEDTAVYDCAAQYRQRRHDYWGQGTQVTVSS | high polyreactivity |
| QVQLVESGGGLVQAGGSLRLSCAASGRIFRYNAMGWYRQAPGKERELVAAITRSGGRTYYADSVKGRFTISRDNAKYTVYLQMNSLKPEDTAVYYCAADKYPSSPYVGDVDYWGQGTQVTVSS | high polyreactivity |
| QVQLVESGGGLVQAGGSLRLSCAASGRIFRYNAMGWYRQAPGKGRELVAAITWDGGSTYYADSVKGRFTISRDNAKYTVYLQMNSLKPEYTAVYYCKAVTRSYYSDYYWGQGTQVTVSS | high polyreactivity |
| QVQLVESGGGLVQAGGSLRLSCAASGRIFRYYAMGCYRQAPGKERELVAAITRGGSTNYADSVKGRFTISRDNAKNTVYLQMNSLKPEDTAVYYCAAAYRGRYKYYYWGQGSQVTVSS | high polyreactivity |
| QVQLVESGGGLVQAGGSLRLSCAASGRIFRYYAMGSYRQAPGKERELVAAISRSGGSTYYADSVKGRFTISRDNAKNTVYLQMNSLKPEDTAVYSCAARLAGRGSSSSRVVRTGGYWGQGTQVTVSS | high polyreactivity |
| QVQLVESGGGLVQAGGSLRLSCAASGRIFRYYAMGWYRQAPGIERELVAAISYRGGSTYYADSVKGRFTISRDNAKNTVYLQMNSLKPEDTAVYYCNIVPRIDTRYDYWGQGTQVTVSS | high polyreactivity |
| QVQLVESGGGLVQAGGSLRLSCAASGRIFRYYAMGWYRQAPGKERELVAAIRSGGSTNYADSVKGRFTISRDNATNTVYLQLNSLKPEDTAVYYCNARYRYFKGGYWGQGTQVTVAS | high polyreactivity |

| Sequence | polyreactivity (PSR sort gate) |
| --- | --- |
| QVQLVESGGGLVQAGGSLRLSCAASGRIFRYYAMGWYRQAPGKERELVAAISRSGSTNYADSVKGRFTISRDNAKNTVYLQMNSLKPEDTAVYYCAADSNYLYFWRRYKRMDYWGQGTQVTVSS | high polyreactivity |
| QVQLVESGGGLVQAGGSLRLSCAASGRIFRYYAMGWYRQAPGKERELVAAITGRGTSTYYADSVKGRFTISRDNAKNTVYVQMNSLKPEDTAVYYCAAGSVLRYWAGDYWGQGTQVTVSS | low polyreactivity |
| QVQLVESGGGLVQAGGSLRLSCAASGRIFRYYAMGWYRQAPGKERELVAAITRGGSTNYADSVKGRFTISRDNAKNTVYLQMNSLKPEDTAVYYCATRQSWYPRWMDYWGQGTQVTVSS | high polyreactivity |
| QVQLVESGGGLVQAGGSLRLSCAASGRIFRYYAMGWYRQAPGKERELVAGISWRGSSTYYADSVKGRFTISRDNAKNTVYLQMNSLKPADTAVYYCNRDLSIIPVTGGRFYYWGQGTQVTVSS | high polyreactivity |
| QVQLVESGGGLVQAGGSLRLSCAASGRIFRYYAMGWYRQAPGKERELVATIDWSVGSTYYADSVKGRFTISRDNAKNTVYLQMNSLKPEDTAVYYCAKRGPQVWTFDYDSSGQGTQVTVSS | low polyreactivity |
| QVQLVESGGGLVQAGGSLRLSCAASGRIFRYYAMGWYRQAPGKETELVAAISKSGGGTFYADSVKGRFTISRDNAKNPVYLQMNSLKPEDTAVYYCAARDKGLGKHDYWGQGTQVTVSS | high polyreactivity |
| QVQLVESGGGLVQAGGSLRLSCAASGRIFRYYAMGWYRQAPWKERELVAVINWSGGSTYYADSVKGRFTISRDNAKNTVYLLMNSLKPEDTAVYYCNVYSVYPQFNYWGQGTQVTVSS | high polyreactivity |
| QVQLVESGGGLVQAGGSLRLSCAASGRIFRYYVMGWYRHAPGKEREFVASISGRGASTYYADSVKGRFTISRDNAKNTVYLLMNSLKPEDTAVYYCNADVWLLSYFPEYDYWGQGTQVTVSS | low polyreactivity |
| QVQLVESGGGLVQAGGSLRLSCAASGRIFSANAMGWYRQAPGKERELVATISTGGGRTYYADSVKGRFTISRDNAKNTVYLQMNSLKPVDTAVYYCNATRNYARVRYYYWGQGTQVTVSS | high polyreactivity |
| QVQLVESGGGLVQAGGSLRLSCAASGRIFSAYAMGWYRQAPGKEREFVAAISARGGSTNYADSVKGRFTISRDNAKNTVYLQMNSLNPEDTAVYYCNDRYVQWYWIAKVIHIDNDYWGQGTQVTVSS | low polyreactivity |
| QVQLVESGGGLVQAGGSLRLSCAASGRIFSAYAMGWYRQAPGKERELVAAITLSDGSTYYADSVKGRFTISRDNAKNTVYLQMNSLKPEDTAVYYCNADWYAYPYGYWGQGTQVTVSS | low polyreactivity |
| QVQLVESGGGLVQAGGSLRLSCAASGRIFSDYAMGWYRQAPGKERELVAAISWGGGRTYYADSVKGRFTISRDNAKNTVYLQMNSLKPEDTAVYYCNRGTVNSWARGYWGQGTQVTVSS | high polyreactivity |
| QVQLVESGGGLVQAGGSLRLSCAASGRIFSEYAMGWYRQAPGKERELVAAITRRGGSTYYADSVKGRFTISRDNAKNTVYLQMNSLKPEDTAVYYCNALLTGGYQDSYPDDYWGQGTQVTVSS | high polyreactivity |
| QVQLVESGGGLVQAGGSLRLSCAASGRIFSFNAMGWYRQAPGKERELVAGITDSGGSTYYADSVKGRFTISRDNAKNTVYSQMNSLKPEDTAVYYCNAEWPYSRVRDYFYAYDYWGQGTQVTVSS | low polyreactivity |
| QVQLVESGGGLVQAGGSLRLSCAASGRIFSFNAMGWYRQAPGKERELVATIRTDGTTNYADSVKGRFTISRDNAKNTVYLQMNSLKPEDSAVYYCATDSGWSTYDYWGQGTQVTVSS | high polyreactivity |
| QVQLVESGGGLVQAGGSLRLSCAASGRIFSFYSMGWYRQAPAKERELVATISKRAGSTYYADSVKGRFTISRDNAKNTVYLQMNSLKPEDTAVYYCAARKWYYASSRWRDYWGQGTQVTVSS | high polyreactivity |
| QVQLVESGGGLVQAGGSLRLSCAASGRIFSFYTKGWYRQEPGKERHLVAANSGSGGSTYYADSVKGRFTISRDNAKNTVYLQMISLKPEDTEFYYCAAGYGFRYYLYDYWGQGTQVTVSS | high polyreactivity |
| QVQLVESGGGLVQAGGSLRLSCAASGRIFSFYTMGWYRQAPGKERELVAAISSGGRTYYADSVKGRFTISRDNEKNTVYLQMNSLKPEDTAVYYCAAGSHYAFYYWGQGTQVTVSS | high polyreactivity |
| QVQLVESGGGLVQAGGSLRLSCAASGRIFSGNAMGWYRQAPGKERELVAAISRGGSTDYADSVKGRFTISRDNAMNTVYLQMNSLKPEDTAVYYCAARVNGKRRRYDYWGQGTQVTVSS | high polyreactivity |
| QVQLVESGGGLVQAGGSLRLSCAASGRIFSGNAMGWYRQAPGKERELVAAITWSGSSTFYADSVKGRFTISRDNAKNTVYLQMNSLKPEDTAVYYCAVDSSSPVRPHTDEDYWGQGTQVTVSS | low polyreactivity |
| QVQLVESGGGLVQAGGSLRLSCAASGRIFSGYAMGWYRQAPGKERELVAAITSGGSTNYADSVKGRFTISRDNAKNTVYLQMNSLKPEDTAVYYCAADSREVSTTAYYYWGQRTQVTVSS | low polyreactivity |
